Source: patent publication US20130171163

Experiments:
[1] = target: insulin-like growth-factor-1 receptor beta subunit (IGF-1Rβ) (UniProt P08069)
[2] = target: VEGFR2 (UniProt P35968)
Chain of VEGFR2 (P35968 20-1356): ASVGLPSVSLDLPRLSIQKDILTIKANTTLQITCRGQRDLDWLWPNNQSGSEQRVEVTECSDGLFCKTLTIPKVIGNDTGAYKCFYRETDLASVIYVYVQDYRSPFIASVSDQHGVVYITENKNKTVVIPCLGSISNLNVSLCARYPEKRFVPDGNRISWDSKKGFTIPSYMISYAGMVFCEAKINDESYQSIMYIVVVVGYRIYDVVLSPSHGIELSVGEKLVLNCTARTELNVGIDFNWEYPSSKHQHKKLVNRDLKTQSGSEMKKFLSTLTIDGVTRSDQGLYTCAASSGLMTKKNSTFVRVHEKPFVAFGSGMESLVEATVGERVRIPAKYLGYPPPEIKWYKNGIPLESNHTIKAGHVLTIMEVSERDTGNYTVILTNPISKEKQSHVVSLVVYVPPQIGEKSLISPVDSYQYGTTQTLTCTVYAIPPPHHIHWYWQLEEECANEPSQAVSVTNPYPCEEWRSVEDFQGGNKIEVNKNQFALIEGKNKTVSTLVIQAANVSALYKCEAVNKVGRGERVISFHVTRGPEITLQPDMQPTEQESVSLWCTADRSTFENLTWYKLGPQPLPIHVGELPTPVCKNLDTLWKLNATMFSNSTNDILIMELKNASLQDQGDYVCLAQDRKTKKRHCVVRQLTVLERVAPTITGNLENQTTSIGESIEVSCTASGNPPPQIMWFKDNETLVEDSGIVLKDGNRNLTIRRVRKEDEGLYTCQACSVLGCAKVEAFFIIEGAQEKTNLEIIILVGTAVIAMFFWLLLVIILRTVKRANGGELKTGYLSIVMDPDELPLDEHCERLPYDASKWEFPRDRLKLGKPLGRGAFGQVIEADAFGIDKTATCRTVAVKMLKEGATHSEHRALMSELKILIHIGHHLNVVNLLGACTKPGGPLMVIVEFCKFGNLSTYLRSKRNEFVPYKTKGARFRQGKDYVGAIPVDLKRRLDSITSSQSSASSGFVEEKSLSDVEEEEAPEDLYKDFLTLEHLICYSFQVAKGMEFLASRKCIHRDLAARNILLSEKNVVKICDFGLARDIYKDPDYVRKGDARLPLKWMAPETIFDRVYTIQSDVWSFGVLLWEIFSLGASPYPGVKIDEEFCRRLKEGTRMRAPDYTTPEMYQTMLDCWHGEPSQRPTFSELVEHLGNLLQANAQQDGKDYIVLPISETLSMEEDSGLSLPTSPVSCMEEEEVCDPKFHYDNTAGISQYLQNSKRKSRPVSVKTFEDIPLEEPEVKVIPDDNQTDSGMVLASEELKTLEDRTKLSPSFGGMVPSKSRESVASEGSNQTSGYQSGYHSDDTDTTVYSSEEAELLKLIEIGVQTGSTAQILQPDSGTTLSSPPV

Chain of insulin-like growth-factor-1 receptor beta subunit (IGF-1Rβ) (P08069 whole entry, looked up, tested part not stated): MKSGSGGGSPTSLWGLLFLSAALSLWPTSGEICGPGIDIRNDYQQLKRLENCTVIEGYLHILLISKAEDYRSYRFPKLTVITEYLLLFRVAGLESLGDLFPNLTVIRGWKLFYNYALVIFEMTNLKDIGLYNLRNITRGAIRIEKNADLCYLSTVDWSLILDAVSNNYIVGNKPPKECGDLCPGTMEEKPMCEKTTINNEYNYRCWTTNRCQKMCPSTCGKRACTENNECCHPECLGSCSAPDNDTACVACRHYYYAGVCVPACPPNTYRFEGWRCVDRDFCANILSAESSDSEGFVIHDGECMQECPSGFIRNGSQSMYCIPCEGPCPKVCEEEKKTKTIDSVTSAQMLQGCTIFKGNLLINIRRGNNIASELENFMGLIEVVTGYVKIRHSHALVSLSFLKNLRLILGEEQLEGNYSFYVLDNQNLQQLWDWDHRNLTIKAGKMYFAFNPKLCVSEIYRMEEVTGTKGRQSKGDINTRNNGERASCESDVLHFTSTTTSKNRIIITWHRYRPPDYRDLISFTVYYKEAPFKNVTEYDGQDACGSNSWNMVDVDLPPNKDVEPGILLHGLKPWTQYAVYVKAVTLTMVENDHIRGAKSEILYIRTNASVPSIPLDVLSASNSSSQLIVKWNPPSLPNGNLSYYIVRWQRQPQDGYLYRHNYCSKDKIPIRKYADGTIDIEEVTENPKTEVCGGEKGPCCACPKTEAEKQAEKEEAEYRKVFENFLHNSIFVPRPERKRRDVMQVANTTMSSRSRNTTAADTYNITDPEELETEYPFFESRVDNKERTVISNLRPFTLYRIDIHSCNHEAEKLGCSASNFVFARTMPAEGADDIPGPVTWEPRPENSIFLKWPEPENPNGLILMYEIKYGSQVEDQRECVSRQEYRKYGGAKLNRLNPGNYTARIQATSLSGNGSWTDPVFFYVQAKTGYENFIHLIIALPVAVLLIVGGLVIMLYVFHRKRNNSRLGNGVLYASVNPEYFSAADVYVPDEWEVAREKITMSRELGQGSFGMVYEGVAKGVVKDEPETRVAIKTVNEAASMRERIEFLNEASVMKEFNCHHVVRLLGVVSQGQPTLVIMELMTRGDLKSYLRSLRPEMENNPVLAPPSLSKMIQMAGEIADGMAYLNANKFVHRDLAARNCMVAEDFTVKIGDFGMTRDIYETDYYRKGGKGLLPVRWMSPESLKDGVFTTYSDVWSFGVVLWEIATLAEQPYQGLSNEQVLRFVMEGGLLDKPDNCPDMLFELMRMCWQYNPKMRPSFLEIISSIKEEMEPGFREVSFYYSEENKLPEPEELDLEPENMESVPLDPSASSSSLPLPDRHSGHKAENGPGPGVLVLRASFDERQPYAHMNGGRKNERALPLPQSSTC

In the case of “leukocyte antigen-related protein tyrosine phosphatase (LAR)”, the “IGF-1-induced tyrosine phosphorylation of IGF-1Rβ in HUVECs overexpressing LAR (AdLAR); IP with anti-IGF-1Rβ, Western blot with anti-phosphotyrosine” value [1] is reported as “LAR overexpression inhibited IGF-1-induced tyrosine phosphorylation of IGF-1Rβ in a dose-dependent manner, with maximum inhibition at 2.5 MOI”, the “IGF-1Rβ autophosphorylation in IGF-1-treated HUVECs after LAR knockdown with siRNA” value [1] is reported as “knockdown of endogenous LAR with LAR-specific siRNA (FIGS. 3A-3B) significantly increased IGF-1Rβ activity, without an apparent effect on IGF-1Rβ expression levels, in HUVEC treated with IGF-1” and the “VEGF-induced tyrosine phosphorylation of VEGFR2 in HUVECs overexpressing LAR (AdLAR)” value [2] is reported as “overexpression of LAR had no effect on VEGF-induced tyrosine phosphorylation of VEGFR2 in HUVECs”.
